Test results: the supplement of paper PMC6757056
± gives the standard deviation of the averaged measurements.

B1: library; a variant is named by its letters at N, in order (parent)
chain: GCUGUCACCGGUGUAUUACCCUAGUGGUCGACCGGUCUGAUGAGUCUNNNNNNAGACGAAACAGC

Columns and labels:
hypoxanthine [1] = variants of: B1; assay: normalized RNA/DNA level with ligand (relative to sTRSVctl = 100) (log10 (% of sTRSVctl)); ligand: hypoxanthine (xanthine aptamer); higher = less ribozyme self-cleavage, higher mRNA level; conditions: ligand concentration (+) RNA-Seq: 5 mM, HEK293T, reporter: mCherry (pCS4076), ligand present: yes
Procedure, shortened: (§1)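 Library plasmids carrying ribozyme switches linked to mCherry, or to eGFP in some ligand experiments, were transfected into HEK293T at 4 µg per 6-well well, with any ligand added 1 h earlier. Seventy-two hours on, total RNA was extracted with EDTA and reverse-transcribed, amplified, barcoded and sequenced. RNA level was RNA over DNA reads normalized to a spiked-in non-cleaving sequence or to the top sequences, then scaled and log-transformed. The top set was 25 sequences, the transform was ×100 and log10, and sequences needed ≥100 DNA reads.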

hypoxanthine [2] = variants of: B1; assay: normalized RNA/DNA level without ligand (relative to sTRSVctl = 100) (log10 (% of sTRSVctl)); ligand: hypoxanthine (xanthine aptamer); higher = less ribozyme self-cleavage, higher mRNA level; conditions: HEK293T, reporter: mCherry (pCS4076), ligand present: no
Procedure, shortened: as §1

Variant	normalized RNA/DNA level with ligand (log10) (hypoxanthine [1])	normalized RNA/DNA level without ligand (log10) (hypoxanthine [2])
UCCGAC	1.95 ± 0.022	1.796 ± 0.016
UCCGAA	1.94 ± 0.0047	1.631 ± 0.0036
UCCGAU	1.965 ± 0.013	1.774 ± 0.0086
CCGCGA	1.88 ± 0.018	1.62 ± 0.016
CCGCGU	1.97 ± 0.023	1.71 ± 0.064
CCGCGC	1.963 ± 0.0058	1.7 ± 0.06
CCGCAU	1.96 ± 0.048	1.786 ± 0.0041
CCGCAA	1.95 ± 0.04	1.78 ± 0.046
CCGCAC	1.964 ± 0.013	1.754 ± 0.0073
GCGAUA	1.88 ± 0.083	1.594 ± 0.0079
UCCCGA	1.956 ± 0.0054	1.8 ± 0.031
UCCCGC	1.924 ± 0.018	1.51 ± 0.017
UCCCGG	1.95 ± 0.11	1.668 ± 0.0066
UCCCUU	1.92 ± 0.051	1.781 ± 0.017
UCCCUC	1.98 ± 0.03	1.66 ± 0.14
UCCCUA	1.92 ± 0.033	1.79 ± 0.043
UCCUGA	1.974 ± 0.017	1.77 ± 0.069
UCCUGU	1.93 ± 0.021	1.86 ± 0.043
UCGCAU	1.87 ± 0.022	1.68 ± 0.018
UCGCAC	1.97 ± 0.069	1.827 ± 0.014

Variant	normalized RNA/DNA level with ligand (log10) (hypoxanthine [1])	normalized RNA/DNA level without ligand (log10) (hypoxanthine [2])
GCCAAU	1.95 ± 0.053	1.798 ± 0.0018
CCCUCA	1.978 ± 0.0074	1.9723 ± 0.00098
CCCUCC	1.95 ± 0.065	2 ± 0.08
CCCUCG	1.93 ± 0.087	1.8103 ± 0.0013
ACCCAG	1.83 ± 0.03	1.48 ± 0.044
ACCCAC	1.921 ± 0.0048	1.792 ± 0.0063
ACCCAU	1.93 ± 0.026	1.79 ± 0.051
ACCCAA	1.896 ± 0.013	1.801 ± 0.013
ACCGAC	1.967 ± 0.0065	1.825 ± 0.017
ACCGAA	1.897 ± 0.018	1.74 ± 0.045
ACCGAG	1.76 ± 0.057	1.301 ± 0.0053
ACCGUG	1.8625 ± 0.00016	1.45 ± 0.051
ACCGUU	1.91 ± 0.06	1.835 ± 0.011
ACCGUC	1.982 ± 0.0058	2 ± 0.026
GCGAGC	1.81 ± 0.034	1.37 ± 0.079
ACCAGG	1.832 ± 0.015	1.44 ± 0.064
ACCAGC	1.993 ± 0.0011	1.94 ± 0.043
ACCAGA	1.952 ± 0.009	1.77 ± 0.024
ACCACC	2.012 ± 0.02	1.927 ± 0.0086
ACCACG	1.91 ± 0.032	1.67 ± 0.023

Variant	normalized RNA/DNA level with ligand (log10) (hypoxanthine [1])	normalized RNA/DNA level without ligand (log10) (hypoxanthine [2])
ACCACA	1.94 ± 0.044	1.902 ± 0.0069
ACCACU	1.96 ± 0.023	1.92 ± 0.048
CCGCCC	2.025 ± 0.013	1.99 ± 0.044
CCGCCA	1.97 ± 0.045	1.94 ± 0.053
CCGCCG	1.956 ± 0.016	1.66 ± 0.037
CCGCCU	1.94 ± 0.025	1.95 ± 0.051
CCGAGU	1.89 ± 0.03	1.57 ± 0.029
CCGAGC	1.899 ± 0.0048	1.44 ± 0.037
ACGCCG	1.873 ± 0.011	1.4 ± 0.032
ACGCCU	1.945 ± 0.008	1.63 ± 0.068
ACGCCC	1.94 ± 0.026	1.875 ± 0.0043
ACGCCA	1.95 ± 0.045	1.81 ± 0.019
UCCAAU	1.94 ± 0.021	1.79 ± 0.018
ACCUCC	1.99 ± 0.03	1.919 ± 0.018
ACCUCA	1.904 ± 0.0082	1.89 ± 0.027
ACCUCU	1.99 ± 0.054	1.926 ± 0.01
ACCUCG	1.928 ± 0.017	1.62 ± 0.062
CCCGGC	2 ± 0.041	1.859 ± 0.0099
